# Laboratory results taken from publication PMC2719252.
# Molecular target: hexa-His-β6 bundlin (soluble, recombinant WT β6 bundlin) (enteropathogenic Escherichia coli (EPEC) strain RN587/1)
# Experiment: native MS
substance,measurement,value
"hexa-His-β6 bundlin (soluble, recombinant WT β6 bundlin) (natural protein)",stoichiometry N,2
